Measured values: paper PMC2722380

Target: His-tagged p55 fusion protein (recombinant full length human erythrocyte p55), expressed in E. coli (human) (UniProt Q00013)
Assay: SPR

His-tagged p55 fusion protein (recombinant full length human erythrocyte p55), expressed in E. coli (human), sequence (Q00013 whole entry, the tested form may be a part): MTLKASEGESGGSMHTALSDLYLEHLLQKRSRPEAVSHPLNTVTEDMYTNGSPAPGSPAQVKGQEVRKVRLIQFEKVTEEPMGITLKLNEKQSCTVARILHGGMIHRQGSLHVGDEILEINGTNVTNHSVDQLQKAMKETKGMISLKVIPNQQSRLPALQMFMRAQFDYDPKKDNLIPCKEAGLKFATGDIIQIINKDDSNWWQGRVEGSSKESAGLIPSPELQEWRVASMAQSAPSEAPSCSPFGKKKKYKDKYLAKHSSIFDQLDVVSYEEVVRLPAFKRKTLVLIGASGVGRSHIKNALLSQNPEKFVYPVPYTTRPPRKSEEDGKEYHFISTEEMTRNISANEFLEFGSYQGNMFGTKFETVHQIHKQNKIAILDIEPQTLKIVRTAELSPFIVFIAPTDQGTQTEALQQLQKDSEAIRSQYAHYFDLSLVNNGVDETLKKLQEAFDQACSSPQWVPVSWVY

Row | Kd | koff | kon | Substance
1 | 30 nM | 0.0018 s⁻¹ | – | MBP fusion of the exon 10-encoded peptide of protein 4.1R (domain or fragment)
2 | 15 nM | 0.0024 s⁻¹ | 160000 M⁻¹ s⁻¹ | MBP fusion of the exon 5-encoded peptide of protein 4.1R (domain or fragment)
3 | 132 nM | 0.0029 s⁻¹ | 22000 M⁻¹ s⁻¹ | MBP-FERMΔExon 5 fusion protein of human protein 4.1R (lacks exon 5, contains exon 10) (domain or fragment)
